Tests used:
Type in all cases: cell-based
PFA-fixed Jurkats cells [1] = assay: RNA yield and DV200 from PFA-fixed Jurkats after Subtilisin A with or without compound (1) (Example 2); conditions: 4% PFA-fixed Jurkats, 50 mM compound (1) where present
Procedure: Materials and Methods: A protease stock solution of 100 mg/ml Subtilisin A from Bacillus licheniformis (Sigma-Aldrich, cat. #P5380) was prepared in H2O and stored at −20° C. A stock solution of the un-fixing agent of 100 mM compound (1) in 30 mM Tris-HCl, 1 mM EDTA, pH 6.8, was prepared and stored at room temperature. Dissociated single cells (Jurkats) were pelleted by 400 g centrifugation for 5 minutes and the supernatant removed. A fixing reagent solution of 4% PFA in PBS with 0.2 U/μL Qiagen RNAse Inhibitor (Qiagen, cat. #129916) was added to the pelleted cells and the mixture incubated at 4° C. overnight. The resulting fixed cells were quenched with 10% FBS in PBS and spun down for 5 minutes at 500 g, 4° C. 150,000 fixed cells were washed once in PBS then resuspended in 100 μL, 30 mM Tris-HCL, 1 mM EDTA, pH 6.8. RNAse Inhibitor was added to the fixed cell solution together with one of the following: (a) 5 mg/mL Subtilisin A; or (b) 5 mg/mL Subtilisin A and 50 mM compound (1). The fixed cell solution with Subtilisin A protease and with or without the un-fixing agent of compound (1) was allowed to incubate at 8° C. for 2 hours, followed by 15 minutes at 70° C. shaking continuously at 300 rpm on an Eppendorf Thermomixer. The resulting cell solutions were spun down for 5 minutes at 500 g, 4° C., and the supernatant and pellet fractions were collected separately. RNA extraction of the collected fractions was carried out using Qiagen 96 Kit (Qiagen, cat. #74181), bulk RNA sequencing, and/or single cell 3′ sequencing. Control samples of fresh cells, fresh cells with un-fixing conditions, and fixed cells without un-fixing treatment were also prepared and RNA extracted. RNA yield was assessed by Qubit HS Assay (Q32855) and yield and DV200 quality metric was assessed by Agilent 4200 High Sensitivity ScreenTape (5067-5579).

PFA-fixed Jurkats cells [2] = assay: RNA yield and DV200 from PFA-fixed Jurkats after Subtilisin A with or without compounds (1) and/or (8) (Example 4); conditions: 5 mg/mL Subtilisin A
Procedure: A. Protease preparation: A protease stock solution of 100 mg/ml Subtilisin A from Bacillus licheniformis (Sigma-Aldrich, cat. #P5380) was prepared in H2O and stored at −20° C.
(§1) B. Un-fixing agent stock solutions: A stock solution of the un-fixing agent of 100 mM compound (1) in 30 mM Tris-HCl, 1 mM EDTA, pH 6.8, was prepared and stored at room temperature. A stock solution of the un-fixing agent of 100 mM compound (8) in 30 mM Tris-HCl, 1 mM EDTA, pH 6.8, was prepared and stored at room temperature.
(§2) C. Fixed cell preparation: Dissociated single cells (Jurkats) were pelleted by 400 g centrifugation for 5 minutes and the supernatant removed. A fixing reagent solution of 4% PFA in PBS with 0.2 U/μL Qiagen RNAse Inhibitor (Qiagen, cat. #129916) was added to the pelleted cells and the mixture incubated at 4° C. overnight. The resulting fixed cells were quenched with 10% FBS in PBS and spun down for 5 minutes at 500 g, 4° C. 150,000 fixed cells were washed once in PBS then resuspended in 100 μL, 30 mM Tris-HCL, 1 mM EDTA, pH 6.8.
D. Cell un-fixing/protease treatment: RNAse Inhibitor was added to the fixed cell solution together with one of the following: (a) 5 mg/mL Subtilisin A protease; (b) 5 mg/mL Subtilisin A protease and 50 mM compound (1); (c) 5 mg/mL Subtilisin A protease and 50 mM compound (8); (d) 5 mg/mL Subtilisin A protease and 25 mM compound (8) and 25 mM compound (1).
The fixed cell solutions treated with Subtilisin A protease and with or without the un-fixing agents of compounds (1) and/or (8) were allowed to incubate under one of the following conditions: (1) 8° C. for 2 hours; (2) 8° C. for 2 hours, followed by 15 minutes at 70° C. shaking continuously at 300 rpm on an Eppendorf Thermomixer; (3) 53° C. for 45 min; or (4) 53° C. for 45 min followed by 15 minutes at 70° C. shaking continuously at 300 rpm on an Eppendorf Thermomixer. The resulting cell solutions were spun down for 5 minutes at 500 g, 4° C., and the supernatant and pellet fractions were collected separately.
(§3) E. RNA quantitation: RNA extraction of the collected fractions was carried out using Qiagen 96 Kit (Qiagen, cat. #74181), bulk RNA sequencing, and/or single cell 3′ sequencing. Control samples of fresh cells, fresh cells with un-fixing conditions, and fixed cells without un-fixing treatment were also prepared and RNA extracted. RNA yield was assessed by Qubit HS Assay (Q32855) and yield and DV200 quality metric was assessed by Agilent 4200 High Sensitivity ScreenTape (5067-5579).

PFA-fixed Jurkats cells [3] = assay: RNA yield and DV200 from PFA-fixed Jurkats after Proteinase K with or without compounds (1) and/or (8) (Example 5); conditions: 4% PFA-fixed Jurkats, 53° C./45 min
Procedure: A. Protease preparation: A stock solution of 20 mg/mL Proteinase K (Sigma-Aldrich, cat. #_AM258) was stored at −20° C.
as §1, §2
D. Cell un-fixing/protease treatment: RNAse Inhibitor was added to the fixed cell solution together with one of the following: (a) 0.1 mg/mL Proteinase K protease; (b) 0.2 mg/mL Proteinase K protease; (c) 0.4 mg/mL Proteinase K protease; (d) 0.2 mg/mL Proteinase K protease and 50 mM compound (1); (e) 0.4 mg/mL Proteinase K protease and 50 mM compound (1); (f) 0.2 mg/mL Proteinase K protease and 50 mM compound (8); (g) 0.4 mg/mL Proteinase K protease and 50 mM compound (8); (h) 0.2 mg/mL Proteinase K protease and 25 mM compound (8) and 25 mM compound (1); or (i) 0.4 mg/mL Proteinase K protease and 25 mM compound (8) and 25 mM compound (1). The fixed cell solutions treated with Proteinase K protease and with or without the un-fixing agents of compounds (1) and/or (8) were allowed to incubate at 53° C. for 45 min. The resulting cell solutions were spun down for 5 minutes at 500 g, 4° C., and the supernatant and pellet fractions were collected separately.
as §3

PFA-fixed Jurkats cells [4] = assay: Bulk un-fixing, then single-cell partition barcoding, 3'-RT and cDNA electropherogram (Example 7); conditions: Fresh cells partitioned with the RT assay reagent mix and the protease
Procedure: A. Protease preparation: A stock solution of 20 mg/mL Proteinase K (Sigma-Aldrich, cat. #AM258) was stored at −20° C.
B. Un-fixing agent of compound (8) stock solutions: A stock solution of the un-fixing agent of 100 mM compound (8) in 30 mM Tris-HCl, 1 mM EDTA, pH 6.8, was prepared and stored at room temperature.
as §2
D. Cell un-fixing/protease treatment: RNAse Inhibitor was added to the fixed cell solution together with 0.1 mg/mL Proteinase K and 50 mM compound (8). The fixed cell solution treated with the protease and compounds (8) were allowed to incubate at 53° C. for 45 min. The resulting cell solutions were spun down for 5 minutes at 500 g, 4° C., and the supernatant and pellet fractions were collected separately. […]

[5] = 5 mg/mL Subtilisin A, 8° C./2 hr
[6] = un-fixing agent 50 mM (25 mM each in combination), 8° C./2 hr then 70° C./15 min
[7] = un-fixing agent 50 mM (25 mM each in combination), 53° C./45 min
[8] = Proteinase K at 0.2 mg/mL, un-fixing agent 50 mM (25 mM each in combination)
[9] = Proteinase K at 0.4 mg/mL, un-fixing agent 50 mM (25 mM each in combination)

B1: Subtilisin A: protease Subtilisin A from Bacillus licheniformis (Sigma-Aldrich, cat. #P5380) (protein, UniProt P00780 106-379, looked up)
Subtilisin Carlsberg: AQTVPYGIPLIKADKVQAQGFKGANVKVAVLDTGIQASHPDLNVVGGASFVAGEAYNTDGNGHGTHVAGTVAALDNTTGVLGVAPSVSLYAVKVLNSSGSGSYSGIVSGIEWATTNGMDVINMSLGGASGSTAMKQAVDNAYAKGVVVVAAAGNSGSSGNTNTIGYPAKYDSVIAVGAVDSNSNRASFSSVGAELEVMAPGAGVYSTYPTNTYATLNGTSMASPHVAGAAALILSKHPNLSASQVRNRLSSTATYLGSSFYYGKGLINVEAAAQ
**Q.** Which “Pellet Qubit Avg (SD), RNA yield” value (PFA-fixed Jurkats cells [1]; [5]) does the source give for B1 here?
**A.** The value was 21.

**Q.** What about the “Pellet Tapestation Avg (SD), RNA yield” value (PFA-fixed Jurkats cells [1]; [5]) of the same molecule?
**A.** The value was 21.

**Q.** And the “Supernatant Tapestation Avg (SD), RNA yield” value (PFA-fixed Jurkats cells [1]; [5])?
**A.** Its value is 8.

**Q.** What about the “RNA recovery relative to fresh cells” value (PFA-fixed Jurkats cells [1]; Subtilisin A, 2 h at 8° C.) of the same molecule?
**A.** The value was “about 7%”.

**Q.** And the “Pellet Qubit Avg (SD), RNA yield” value (PFA-fixed Jurkats cells [2]; 8° C./2 hr)?
**A.** The value was 108.4.

**Q.** What about the “Pellet Tapestation Avg (SD), RNA yield” value (PFA-fixed Jurkats cells [2]; 8° C./2 hr) of the same molecule?
**A.** The value was 49.

**Q.** What about the “Supernatant Qubit Avg (SD), RNA yield” value (PFA-fixed Jurkats cells [2]; 8° C./2 hr) of the same molecule?
**A.** Its value is 0.

**Q.** What about the “Pellet Qubit Avg (SD), RNA yield” value (PFA-fixed Jurkats cells [2]; [6]) of the same molecule?
**A.** The value was 106.

**Q.** What about the “Pellet Tapestation Avg (SD), RNA yield” value (PFA-fixed Jurkats cells [2]; [6]) of the same molecule?
**A.** The value was 58.

**Q.** And the “Supernatant Qubit Avg (SD), RNA yield” value (PFA-fixed Jurkats cells [2]; [6])?
**A.** Its value is 398.

**Q.** What about the “Supernatant Tapestation Avg (SD), RNA yield” value (PFA-fixed Jurkats cells [2]; [6]) of the same molecule?
**A.** The value was 231.

**Q.** What about the “Pellet Qubit Avg (SD), RNA yield” value (PFA-fixed Jurkats cells [2]; [7]) of the same molecule?
**A.** The value was 144.

**Q.** And the “Pellet Tapestation Avg (SD), RNA yield” value (PFA-fixed Jurkats cells [2]; [7])?
**A.** Its value is 244.

**Q.** And the “Supernatant Qubit Avg (SD), RNA yield” value (PFA-fixed Jurkats cells [2]; [7])?
**A.** Its value is 245.

**Q.** And the “Supernatant Tapestation Avg (SD), RNA yield” value (PFA-fixed Jurkats cells [2]; [7])?
**A.** The value was 252.

B2: Proteinase K: the protease, Proteinase K (Sigma-Aldrich, cat. #AM258) (protein, UniProt P06873 106-384, looked up)
Proteinase K: AAQTNAPWGLARISSTSPGTSTYYYDESAGQGSCVYVIDTGIEASHPEFEGRAQMVKTYYYSSRDGNGHGTHCAGTVGSRTYGVAKKTQLFGVKVLDDNGSGQYSTIIAGMDFVASDKNNRNCPKGVVASLSLGGGYSSSVNSAAARLQSSGVMVAVAAGNNNADARNYSPASEPSVCTVGASDRYDRRSSFSNYGSVLDIFGPGTSILSTWIGGSTRSISGTSMATPHVAGLAAYLMTLGKTTAASACRYIADTANKGDLSNIPFGTVNLLAYNNYQA
**Q.** Which results are given for B2?
**A.** Pellet Qubit Avg (SD), RNA yield (PFA-fixed Jurkats cells [3]; Proteinase K at 0.1 mg/mL): 1350; Pellet Tapestation Avg (SD), RNA yield (PFA-fixed Jurkats cells [3]; Proteinase K at 0.1 mg/mL): 1804.5; Supernatant Qubit Avg (SD), RNA yield (PFA-fixed Jurkats cells [3]; Proteinase K at 0.1 mg/mL): 321.3; Supernatant Tapestation Avg (SD), RNA yield (PFA-fixed Jurkats cells [3]; Proteinase K at 0.1 mg/mL): 152.55; Pellet Qubit Avg (SD), RNA yield (PFA-fixed Jurkats cells [3]; [8]): 107.82; Pellet Tapestation Avg (SD), RNA yield (PFA-fixed Jurkats cells [3]; [8]): 127.8; Supernatant Qubit Avg (SD), RNA yield (PFA-fixed Jurkats cells [3]; [8]): 251.1; Supernatant Tapestation Avg (SD), RNA yield (PFA-fixed Jurkats cells [3]; [8]): 121.05; Pellet Qubit Avg (SD), RNA yield (PFA-fixed Jurkats cells [3]; [9]): 106.2; Pellet Tapestation Avg (SD), RNA yield (PFA-fixed Jurkats cells [3]; [9]): 76.725; Supernatant Qubit Avg (SD), RNA yield (PFA-fixed Jurkats cells [3]; [9]): 266.4; Supernatant Tapestation Avg (SD), RNA yield (PFA-fixed Jurkats cells [3]; [9]): 125.55; cDNA electropherogram profile from single-cell 3'-RT (FIG. 11B) (PFA-fixed Jurkats cells [4]): no mound profile

Source: patent US12241890B2, “Methods for generating barcoded nucleic acid molecules using fixed cells” (10X Genomics, Inc., priority 2019, dated 2025)
